The subject of the experiment is CXCL12. Put plainly: CXCL12 expression by immunohistochemistry in BMOC device after adding mobilizing agents. Type of experiment: cell-based, human. The following applies: BMOC with OBs, HUVECs and MSCs; G-CSF and AMD3100 added on day 5, cells fixed and stained on day 6; IHC. The protocol:
Cells were fixed and stained on day 6. CXCL12 expression was measured by immunohistochemistry (IHC); n=2-3 devices (× 5 ROI each), mean±SD.
Staining procedure for devices was adapted from previously reported approaches. Devices were washed with PBS, fixed with 4% formaldehyde (ThermoFisher), and permeabilized with 0.1% Triton X-100. Prior to staining, cells were blocked with 5% BSA, 3% goat serum in PBS. Primary antibodies were diluted (1:100) in blocking buffer and devices were stained overnight at 4° C. Devices were then washed with 0.1% BSA in PBS and stained with secondary antibodies (1:200) diluted in wash buffer for 3 hours at RT. Devices were washed with wash buffer and then stained with DAPI (1:1000) and Phalloidin AF647 (1:40).

B1: G-CSF: mobilizing agent added to the BMOC device (protein, UniProt P09919 31-207, looked up)
Granulocyte …: TPLGPASSLPQSFLLKCLEQVRKIQGDGAALQEKLVSECATYKLCHPEELVLLGHSLGIPWAPLSSCPSQALQLAGCLSQLHSGLFLYQGLLQALEGISPELGPTLDTLQLDVADFATTIWQQMEELGMAPALQPTQGAMPAFASAFQRRAGGVLVASHLQSFLEVSYRVLRHLAQP
In the case of B1, the “expression of cytokine CXCL12” value is “decrease expression of cytokine CXCL12”.

Values taken from US20210062131A1, “In Vitro, Multi-Niche, Bone Marrow-on-a-Chip” (Georgia Tech Research Corporation, priority 2018, published 2021).
